± gives the standard deviation of the averaged measurements.
Test system: ATP
Experiment: switch fluorescence ratio, 500 uM ATP over buffer (Cy3 cluster intensity, sum of 5 cycles each) (fold (ratio)); higher = stronger signal-on switching upon ATP binding; sequences stand for … in TCGTCGGCAGCGTCAGATGTGTATAAGAGACAGTTTTTTTTTTTTTTTTTTTTTTTTT…TC
Details: aptamer strand: ATP DNA aptamer (quencher-CACCTGGGGGAGTATTGCGGAGGAAGG + anchor), 100 nM annealed; ATP concentration: 500 uM
Procedure, shortened: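 Switching-strand clusters labelled with Cy3 on a modified Illumina MiSeq flow-cell were annealed to 100 nM quencher-labelled ATP aptamer, imaged in selection buffer, and re-imaged after 15 min with 500 uM ATP at 22 °C. This was done over five cycles with NaOH stripping and re-annealing in between. The fluorescence ratio is summed target-cycle over summed buffer-cycle Cy3 intensity per cluster, averaged per switch-domain sequence, excluding clusters outside 100-1000 RFU.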
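Note: ATP exposure 15 min at 22 °C before imaging.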

Sequence	switch fluorescence ratio
GGGTAAGGTT	0.985 ± 0.028
CGTTTGAAAA	1.019 ± 0.0058
TAGGCTTTCG	0.9957 ± 0.0076
TTTTTGTTTA	0.971 ± 0.038
ACGGGTTCGC	0.988 ± 0.022
TCAGCAAAGT	1.08 ± 0.019
ACATGGGGTT	0.998 ± 0.03
TAGCGCGGGA	1 ± 0.016
ATACAGGGTG	1.24 ± 0.019
AGTCCAAGGC	1.02 ± 0.065
AGGTGGCTAG	1.026 ± 0.0052
GAGATAGTTT	0.995 ± 0.042
AAAGGTGCCA	1.05 ± 0.015
TTTAATGGAA	0.988 ± 0.012
CGATGGCCCT	1.03 ± 0.011
CACGGTTTGT	0.985 ± 0.018
TTTACGATGC	1.05 ± 0.0062
GTTTGTGGAC	0.997 ± 0.035
AAATTCGGTT	0.99 ± 0.013
GCGTGGGGGC	1.02 ± 0.019
TTGATGATCC	0.9781 ± 0.0034
TTCGGGCGAT	1.01 ± 0.013
TGATCGGCGG	1.02 ± 0.05
GAGTTCAGTA	0.975 ± 0.034
AGCGTCTCCG	1.024 ± 0.006
GAAAAGTAAG	1.018 ± 0.008

Sequence	switch fluorescence ratio
CATACGAAGT	1.02 ± 0.068
CGTCCATTGA	1.03 ± 0.019
GTAGTTCATG	0.96 ± 0.018
ATATCGGGGT	1.001 ± 0.0045
TGATTGCTAT	1.01 ± 0.039
CTGGTATAGT	1.03 ± 0.03
TGCTTCGTGC	0.996 ± 0.012
AGAAGTTGGT	1 ± 0.023
TTAATCCTTG	1.02 ± 0.034
GCTGGGGGCA	1.05 ± 0.098
GTTGTAACAT	0.99541 ± 0.00081
AAATTTGGGA	0.969 ± 0.027
AGGCGAAGCA	0.9923 ± 0.0092
CAAGTTAATG	0.97 ± 0.041
TCAGCAATCG	2.57 ± 0.026
TTGGATTAGT	0.982 ± 0.011
ACTTGGACAT	1.04 ± 0.018
TTTCGACGCT	2.18 ± 0.85
TGGTGGAGGG	1 ± 0.032
CCTTTCACTC	1.124 ± 0.0035
AATCCGCGGA	0.964 ± 0.013
TAAATTTCGA	1.04 ± 0.018
AGGCAGAACG	1.048 ± 0.0058
AACGCTTCAC	1.65 ± 0.054
TTATCGGGTT	0.973 ± 0.036
AAATAGGTTG	1.01 ± 0.021

Sequence	switch fluorescence ratio
TATTTATTGT	1.01 ± 0.008
GGATGGTAGC	1.01 ± 0.013
GAGTGGTCGC	1.002 ± 0.0014
ATAACAGGGC	0.952 ± 0.037
TTGAAGGGGT	1.08 ± 0.1
CTAGGCTAAT	1.014 ± 0.01
TCCGCACCGT	1.76 ± 0.23
AGGTTTCGAG	0.997 ± 0.023
TCGAGAGGGT	0.996 ± 0.015
ATTGTTAGGG	0.985 ± 0.019
TTGTGGTTGT	0.966 ± 0.016
AGCAAGTCAG	1.07 ± 0.013
AAGTACAGCG	1.03 ± 0.026
AAAGAGGCGG	1.006 ± 0.0013
TGCTTTACAT	1.03 ± 0.014
GAATGGCACG	1.003 ± 0.008
TGGCAATATT	2.31 ± 1.6
TGGGGGGAG	1.0137 ± 0.00093
GTTTCGCGA	1.14 ± 0.041
TTAGTGGAAT	0.9552 ± 0.0073
TATATTCTTA	1 ± 0.065
GCTGATTGGA	0.979 ± 0.055
AACTTCTGCC	1.025 ± 0.0013
AGTAATCGCT	0.985 ± 0.01
GCGTCAGGTG	3.82 ± 0.21
TTTCAGCTGG	0.997 ± 0.027

Sequence	switch fluorescence ratio
TACGTACGCC	1.57 ± 0.073
GGACTGGGGA	1.0045 ± 0.00084
AAGTATAAGG	0.994 ± 0.011
GGGCCCTTCG	1.018 ± 0.0047
ATTGGTATCT	0.979 ± 0.014
CATGGGTGTG	0.993 ± 0.042
TGGGAAAGTT	0.988 ± 0.025
TCAGTTGGGG	0.991 ± 0.011
CATTGAGTAG	1.01 ± 0.024
TGTGTAAGAG	0.9867 ± 0.0063
AGTTGGTTAG	1.004 ± 0.005
TACAAGCGTA	0.992 ± 0.014
AATTCCTTGG	0.984 ± 0.034
CGAAATGGCA	1.03 ± 0.045
TAAGGCCCGG	1 ± 0.03
TGCGCCCGTT	1 ± 0.033
AAGGGGGGGG	1.02 ± 0.055
GTGGTTCTTT	0.989 ± 0.044
GGTAGTAGAT	1.01 ± 0.0072
TTGGTGGTTT	0.988 ± 0.027
TATACTTAAT	1.059 ± 0.0053
ATTGGAGTAG	1.01 ± 0.014
CATCGAGGAC	1.06 ± 0.072
GGTTCTGGGT	1 ± 0.02
TACTCACGAA	1.42 ± 0.027
GTGATACCCG	1.02 ± 0.058

Sequence	switch fluorescence ratio
TGGGCGCGGT	0.975 ± 0.018
CCAAGGCGGG	1.04 ± 0.017
GATCTCCCCT	1.38 ± 0.053
AAGCAGTACC	3.24 ± 0.72
TTAGGCGTAT	0.989 ± 0.041
GGCAAAAATT	1.01 ± 0.017
CACGGGTATT	1.013 ± 0.0028
TTTTTGGCCT	1.05 ± 0.052
TAGACGGGCT	0.9797 ± 0.0025
GCCATCAATA	1.03 ± 0.023
GCATCAGGGA	1.02 ± 0.035
AGAGTCATGG	1 ± 0.013
GTATGATGTG	0.9915 ± 0.008
GGTTCTTGAA	0.994 ± 0.019
ATGTACGCTT	1.052 ± 0.0038
GCTTACTGTG	1.01 ± 0.037
ACTCCAATGG	1.85 ± 0.12
TAAGGGTTTA	1.06 ± 0.1
TGTTGGTTGC	0.988 ± 0.033
TGCTGGGCTG	1.01 ± 0.025
GATATTGTGG	0.987 ± 0.025
TTTGGGTCTG	0.992 ± 0.026
TAGGCTTTGG	0.97 ± 0.0099
CAATTGCATC	1.02 ± 0.014
AACGGTTGGC	0.975 ± 0.017
TGAATTTATT	1 ± 0.015

Sequence	switch fluorescence ratio
AGCAACGTTC	1.07 ± 0.081
AATGAAGCTC	0.966 ± 0.051
TTGATGCAGC	0.958 ± 0.054
TTTAGACGTT	1.02 ± 0.016
TATGGAAACG	0.981 ± 0.011
AGTAAGGCTA	1 ± 0.051
GCAGGGATTG	0.9734 ± 0.0058
TTTTTGAATG	0.983 ± 0.032
ATGGGCGGTA	1.04 ± 0.052
GAAGTTCGTG	1.01 ± 0.055
AGGCAAGGGG	1.04 ± 0.069
GACTTGATTA	0.9719 ± 0.0062
ATTTGGTTA	0.993 ± 0.035
AGAGACGGGG	1.02 ± 0.013
CAGTCTGGGG	0.964 ± 0.012
GGTTACATTG	0.993 ± 0.019
GAAGGTTAAC	1.03 ± 0.1
GCAGTTAGCC	1.01 ± 0.034
TCATACATTT	0.9801 ± 0.0049
CTCTTAGGGG	1.12 ± 0.16
CACATTAACT	1.094 ± 0.0047
GCGGGTATGG	1 ± 0.021
GATAATATAA	1.02 ± 0.026

Reference: the supplement of paper PMC10126150
